Assay: soluble on expression in E. coli; label from the status in PepcDB or PDB records

Row | Sequence | soluble on expression in E. coli
1 | MGSDKIHHHHHHMNLKSGYPFWSIRNGLMRPYPRLEQDTHCEVAIIGGGVTAALIAHELLRHGHEVVVIEQREIGWGSTSASTALLQYEIDTPMVDLAAQYGMPAAALAYGACAKAILDLQELCDGLGGCDFTRQDSLYYASRARDLKDLQRELDARKTHALPVEWIAGDALWHDYGVRSEGAILSRLAASVDPYRLCYRLFAECEQYGGRIYDRSPIATLQAHDQHVDLRTQDGVNVRARHVIMAAGYGNQQWLSQRVARNRSSYAFVTDPLHDTDVGALKHTMMWETARPYLYVRTTADGRVVAGGEDDSIDIPARRDARVLSKMDTLLKKIAKVMPDVRLRPVFAWGGTFAETADGLPFFGTHSEHGPRVAFAMAYGGNGITYSAIGAGLLRAQLEGRAYPLSDLFGFSRLG | not soluble
2 | VGGQVRIAANTSSITQFLPEDLAGFMQRHPAVRIHLEEQNSSDIVTAVAENRADVGIFADRTPAAGLTTVPYRLDELVLITPPRHPLAARAQVAFADTLDCDYVGLPPATSLATRLADESARLDKSIRLRIQVRSFDAICRMVVAT | not soluble
3 | MNALLVMTGLAAAASGRIGAACSALLGGGAVRGRSAGASGDEAQAQDADSSPEADRLEDVSPSGAFAGVIAALEVQAPVRDVPPPTDDLANEGEDIARSRVAATAADAVTSGGAARSPRDALGGLAFGQSPMIEAGKALYVSPVRDDERLRNGERFRDGERLRDGADGARAGMRDAASAAGAASTSRVGQPGAGAPRDQQALSQSPGQQAADKPPAGAPGPQEGTIGAPVDMPRAAARAHSPQSAPVRLGAELMSVLGERIDVQLQRGVERAVIRLDPQSMGTLHIAIRHEGGSVQIQMIASHEEVARQLQTMSEALRQDLSSRHHGDVTVVVRHGQGMEQGAGHGEGGAHREEKRPGAALAEADVPDGDDGFRLDGRDVI | not soluble
4 | MDTNFKLSNCIGTVYRDGQVAFSKDGYSVISPIGNKLSIFDLRNNTSKTLDIDCNYNIKRLSISPSGYHLLASDERGVVHFVHLLSEFKIYTFRSNKPIGSLQWSPDATRVAICRENDLQIHEFGKSIENKVYNPFSLSRTYKLSSDSLKTIDWSDDANLLVSGGEDRVVRVVGAKDFKNLFIHPLASHKGYIVNCQFMKNSYDMITVCKRGLANVWTCNLRPGELVEGIWKKDEEGSDDIEMLEDGEQKVEKIFFEKTKKYWLSESSGSGKSVDVTAARFHKETNILATAFNNGVIVLHEIPSFALVHNLRVSEMRIQTVAWNLTGDWLAIGCGKGSTAQLVVWEWQSESYVMKQQAHSLRITTAEYSPDGSLMATGAEDGKVKIWNSRSSFCTVTFDEHTSGVTAVKWTQSGRAILSASLDGTVRAHDLKRYRNFRTLVCPEPTQLATLAVDKAGDLVIAGAKEVFNIYIWSFETGHLLDILSGHESAISSIDIHGNHIVSGSWDRTIKMWTIVDSQAETVEVSHEALDVKFSPAGDEIAVLTSDGVITFFEAKEMINLGSIDTKLDTDPARGSRDTITRQSAAKTKTFTRIRFSPDGNLLLAGGESNNFCLYSVPERMILKKWQITANRSLDGVILDFNRRNFTEFGNMQLVDTSDEEDELEPNNKMSIKLPGTKNFDLGERRARPEVNIYEVTYCPTGRRFAICSTEGVSVYSLDTISMFDPFQLDSQTNAEVIKRAVWNNDYSTAIMASLRLNNAQYITECLESTSISQIPLVASSLPLMYAERLLKWMVEGNVMSSTRHVHFYMIWLRAILQHHGMQLKGRADVATLTGIQQIVAHHQQHITKLANQNKFALNWLVKIRQSKKSVKKEEEEEEDVSDESDDEDIEDESAGSDDEDSDDSVEIIE | not soluble
5 | MSLKILIPTAKEMNTDLPSIEAIPLKPESQTVLDALALYSASQLESFYKVSAEKAAEEFQNIQALKRQTAQHYPALKLFDGLMYRNIKRDKLTEAEQDYLENHVFITSALYGVVPALSPMAPHRLDFLMKLKVAGKTLKSHWKAVYDEALKKEEVIFSLLSSEFETVFSKEIRAKMVTFKFMEDRGGQLKIHSTISKKARGAFLTALIENQVQTVGEARRLNFAGFVYREDLSQPQGLVFVKEVEGHHHHHH | soluble
6 | MTEPLILQPAKPADACVIWLHGLGADRYDFMPVAEALQESLLTTRFVLPQAPTRPVTINGGYEMPSWYDIKAMSPARSISLEELEVSAKMVTDLIEAQKRTGIDASRIFLAGFSQGGAVVFHTAFINWQGPLGGVIALSTYAPTFGDELELSASQQRIPALCLHGQYDDVVQNAMGRSAFEHLKSRGVTVTWQEYPMGHEVLPQEIHDIGAWLAARLG | soluble
7 | MGSDKIHHHHHHMSNIKVLIQASSRSWAGGRDICMGLVNGEIAIVRTIKRALTAFPEAQFCLVAPEFDRGGELKGIVDEIADKRLQAFYGFDESPLSRMVAASSELKDDDFIVRVDGIHFCFDTNLSQQMVSLAQKNNLDCIKLPADFPVHFSSEVFRVGALRELVKILDKPELAKFHVHPKTYFELNRYDYKFEHLGSLPQYSDDYLRECRQLAQAIYEIPRQEVNSHRIASGDRLGYHYQLALKYLKSSMKVLDIACADGYGVRMMSTSLATVHGADLDPESVAYAKAHSSQKNVAFFVEDITDMSFDDDSYDAVTSFETLEHVPEEACLKELQRIIKPGGMLVLSTPQNSYGHIPVNSCHIVEYSLDYLLNLVGQYFHIVKVIGIKAGIIHDDADPYGTNTVLVCIKPIR | not soluble
8 | MPKSFYFCKTLERLTLSDKILVDVPCQVSLPSLRELDLFCVVYKDEDSHVKLLSSCPVLKHLKVTRNRRVEDNVRTFRVEVPSLLRLDYKAGMMFREDSDMSDPFLVTDTPNLLSLHIFDTVGYSLSVWYMPHLVTVVTDELFPSEKFMRPLSSVKYLALSPFDTMVPWCDAVNNYSRLVECMIHLSEYDLLESLLVLLSKCSKLKVFLVDSDIPRWNHDPALWNQPSSIPRCLSSHLEIFEWDGYVGREDEKKIIRYILENSKYLKTAGISPNSTFSGEEKQKMEELESMHRTPTSVLLSSARMSFRY | not soluble
9 | MADTKAKLTLNGDTAVELDVLKGTLGQDVIDIRTLGSKGVFTFDPGFTSTASCESKITFIDGDEGILLHRGFPIDQLATDSNYLEVCYILLNGEKPTQEQYDEFKTTVTLHTMIHEQITRLFHAFRRDSHPMAVMCGITGALAAFYHDSLDVNNPRHREIAAFRLLSKMPTMAAMCYKYSIGQPFVYPRNDLSYAGNFLNMMFSTPCEPYEVNPILERAMDRILILHADHEQNASTSTVRTAGSSGANPFACIAAGIASLWGPAHGGANEAALKMLEEISSVKHIPEFFRRAKDKNDSFRLMGFGHRVYKNYDPRATVMRETCHEVLKELGTKDDLLEVAMELENIALNDPYFIEKKLYPNVDFYSGIILKAMGIPSSMFTVIFAMARTVGWIAHWSEMHSDGMKIARPRQLYTGYEKRDFKSDIKR | soluble
10 | MAQLYFYYSAMNAGKSTSLLQSSYNYRERGMNTLVMTASIDDRYGKGKVASRIGIESDAQVFSSHDNLIEMITAAHQENHLSCVLVDECQFLSKEQVKQLTYIVDKIDIPVLCYGLRTDFQGELFSGSHYLLAWADKLVELKTICHCGRKANMVVRLDGEGKVMREGEQVAIGGNESYESVCRKHFREFIWD | soluble
11 | MGHHHHHHSHMVDIDLPEPPKPTPPDQETEEEQRFRALFEQVAGEDMEVTAEELEYVLNAVLQKKKDIKFKKLSLISCKNIISLMDTSGNGKLEFDEFKVFWDKLKQWINLFLRFDADKSGTMSTYELRTALKAAGFQLSSHLLQLIVLRYADEELQLDFDDFLNCLVRLENASRVFQALSTKNKEFIHLNINEFIHLTMNI | soluble
12 | MARGIKLVIFDVDGVLVEVKSSWGYIHRRLGVEEEAMKVKEMFERGSIDYIEWMRLDTELWIRASGGRLHRSRLMEIVGEIPVRKEAFEAVRMLRRMGLRIGLVSSGIDLLVRRVAAEIGADAWASNRLLFDKNGFLQPGGSPLVGVDKRGAVTRMAYELGASLEEVAYVGDSRWDASAMSIVGLPIAYNDGGELDGVARARVDSLLDVPRVVAEWGRARAR | not soluble
13 | MSLNYEMFAKLYDRLMADAPYDRWAKLVEEEIRKAIFSDVNLLDIGCGTGRLLKILSERGYACTGVDQSANMLVIAREALAQKGVQVPLFQQDMTEFYTGETYQVITIFCDSLNYVITEEGVVQTFQRVFDHLDQQGVFMFDVHSPTKLRNHFIGKTFADADEEISYIWQSFAGEAEQSVEHELTFFVRNETGSYDRYEELHIQRGYPIERYVDWLKEAGFSRIDITADFTNEAPTENSERIFFKAYKKEGHHHHHH | soluble
14 | MGSDKIHHHHHHMAQYSAQFNHAKVLVLGDVMLDRYWFGATNRISPEAPVPVVRVQQNEERAGGAANVAMNIASLNVPVQLLGLTGQDEAGAALTSLLQQQKIACDFVQLATHPTITKLRILSRHQQLLRLDFEEDFQNMTSADLLKKLESAVKNYGALILSDYGKGTLNEVQKMIQIARNANVPVLIDPKGTDFERYRGATLLTPNMSEFEAVVGKCHSEQEIIDKGLKLISEINLTALLVTRSEKGMTLLRPNQPVYHLPTEAKEVFDVTGAGDTVISVLATALADGRSFEEACYLANVAAGIVVGKLGTSTVSTVELENAIHGRTGTGFGVMTEAELKEAVKLAKDRGEKIVMTNGCFDILHPGHVSYLDNARKFGDRLIVAVNTDDSVKRLKGEERPINNLASRMAVLAGLSSVDWLVPFGEDTPQRLIGEVLPDLLVKGGDYKPEEIAGSKEVWANGGDVKVLNFENGFSTSNVIKKIKHLEK | not soluble
15 | MHMLKARNCGWIRLLPLFMLSLPVQAELRCVANAVDIESFFSAATAEDKQQVEQAINSSVNLVPFGLSASNWKVHRGDLVVEGNIESNQKLIVLGNLTVKGNISTFSLSNPWVILGNVTATNIVADSPLLITGSINASGLVFIDSYYDNPSTIKGSINARGIFINDIIAPVVASSTNSEFMVRASDKHDTENVKKALMIINPDAYYWGLINDEDALKEIFKRSNIRMAGNVCNQMKKEALFRPKPSPELVQELQMLDEGKVAAFEGRDIATFDLAVMRTLPRLKGISANLRKQLINSNDEQTIESMARYMPDNEILELTDQQLGYQPVVLGLLDREPLSVEIMTRMSRLPDGVGPLNLALRENLPLDIVMTLAKRDWDMIIQELYKDAWLLPESIIDGYIRSDDSSIRQVGAGGQLTYNQAMQLANDSSNNVVTSLAFKLAEMKHHGQLLRMTPQESDKVAGYLYQKFENDDDLIRVLFLALPDNLQFNFVKRMEKKSPAYFCCRDMQVIHSDAALQRLLTRFNDPEGWSNLAKNQYLSTSMKQKIWQRALSHRKNNPKADSDAYETSADMILSELISHGEVDDQMLLNATALIRSDDWDFLESALISWDNLPAVVLKELQQNTPRNDIWAKFFLRQENSSRAQVDEALRVYYALDPDALAQLDVLAKQPDRIWWSTLAKSNLTFFKFGALNNRHTPPAVLAAEIDPEWWIVAMNNPRFPVDVLKARLKRDPLLALELVNPELDLVRQLALNGKTRAIREQAMRKLDELY | not soluble
16 | MNHLLSMEHLSTDQIYKLIQKASQFKSGERQLPNFEGKYVANLFFENSTRTKCSFEMAELKLGLKTISFETSTSSVSKGESLYDTCKTLESIGCDLLVIRHPFNNYYEKLANINIPIANAGDGSGQHPTQSLLDLMTIYEEYGYFEGLNVLICGDIKNSRVARSNYHSLKALGANVMFNSPNAWIDDSLEAPYVNIDDVIETVDIVMLLRIQHERHGLAEETRFAADDYHQKHGLNEVRYNKLQEHAIVMHPAPVNRGVEIQSDLVEASKSRIFKQMENGVYLRMAVIDELLK | not soluble
17 | MAHHHHHHMPRPEILASCHQTLENCLIESTRNSMDATNKAMLESVAAEMMSVSDGVMRLPLFLAMILPVQLGAATADACTFIPVTRDQSDIYEVFNVAGSSFGSYAAGDVLDMQSVGVYSQLRRRYVLVASSDGTSKTATFKMEDFEGQNVPIRKGRTNIYVNRIKSVVDNGSGSLLHSFTNAAGEQITVTCSLNYNIGQIALSFSKAPDKGTEIAIETEINIEAAPELIPLINHEMKKYTLFPSQFVIAAEHTVQAAYEAQREFGLDLGSLQFRTLKEYLSHEQDMLRLRIMIWRTLATDTFDIALPVNQSFDVWATIIRGKFQTVYRDIIERVKSSGAMGMFAGADAASFFKQLPKDFFQPAEDYIQTPYVHYIGTPFRTTHST | not soluble

Reference: the DeepSol protein solubility set
